Values of other authors as cited in US20170290929A1, “GRP78 TARGETED CONJUGATES” (University of Iowa Research Foundation, priority 2014, published 2017).
Ends that are not written are not given here.

Target: GRP78 (Homo sapiens, UniProt P11021)
Conditions: cell free binding assays

Sequence of GRP78 (P11021 19-654, species assumed): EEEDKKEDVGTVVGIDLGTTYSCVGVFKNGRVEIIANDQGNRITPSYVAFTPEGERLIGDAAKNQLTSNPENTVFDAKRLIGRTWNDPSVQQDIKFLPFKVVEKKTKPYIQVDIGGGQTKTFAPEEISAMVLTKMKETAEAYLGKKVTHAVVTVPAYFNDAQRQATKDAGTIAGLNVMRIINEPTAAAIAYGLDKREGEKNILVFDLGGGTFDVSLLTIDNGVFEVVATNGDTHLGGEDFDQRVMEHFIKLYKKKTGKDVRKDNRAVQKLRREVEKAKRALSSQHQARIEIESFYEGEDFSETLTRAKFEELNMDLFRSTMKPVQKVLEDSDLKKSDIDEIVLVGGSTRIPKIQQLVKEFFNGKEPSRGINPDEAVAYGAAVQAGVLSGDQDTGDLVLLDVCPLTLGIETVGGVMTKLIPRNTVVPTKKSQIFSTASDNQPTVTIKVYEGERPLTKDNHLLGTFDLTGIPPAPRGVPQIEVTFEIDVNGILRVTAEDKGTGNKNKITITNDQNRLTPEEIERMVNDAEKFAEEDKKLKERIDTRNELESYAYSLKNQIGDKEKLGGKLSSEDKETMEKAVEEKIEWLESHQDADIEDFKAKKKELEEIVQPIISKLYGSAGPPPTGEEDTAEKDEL

binding with GRP78: shown to bind with GRP78
Substance: PEP42: 13-mer cyclic peptide, amino acid sequence CTVALPGGYVRKC (SEQ ID NO:1) (also: cyclic)
